The experiment deals with RING1 [the product of Sex combs extra (Sce) gene] (D. melanogaster (endogenous in embryos)) (UniProt Q9VB08). The experiment can be described thus: co-IP; nuclear extract of RYBP-KO, Siesta-Strep embryos (no RYBP), dialysed against 25 mM Hepes-KOH pH 7.6, 0.1 M KCl; anti-RING1 cross-linked to Dynabeads or Strep-Tactin Sepharose, 0.02% NP-40, overnight at 4°C; Western blot; compared with Siesta-Strep extract.

For 1 substance, fold reduction of coimmunoprecipitation without RYBP against extract with RYBP results are on record in article PMC12965321.

UniProt Q9VB08, sequence (Q9VB08 whole entry): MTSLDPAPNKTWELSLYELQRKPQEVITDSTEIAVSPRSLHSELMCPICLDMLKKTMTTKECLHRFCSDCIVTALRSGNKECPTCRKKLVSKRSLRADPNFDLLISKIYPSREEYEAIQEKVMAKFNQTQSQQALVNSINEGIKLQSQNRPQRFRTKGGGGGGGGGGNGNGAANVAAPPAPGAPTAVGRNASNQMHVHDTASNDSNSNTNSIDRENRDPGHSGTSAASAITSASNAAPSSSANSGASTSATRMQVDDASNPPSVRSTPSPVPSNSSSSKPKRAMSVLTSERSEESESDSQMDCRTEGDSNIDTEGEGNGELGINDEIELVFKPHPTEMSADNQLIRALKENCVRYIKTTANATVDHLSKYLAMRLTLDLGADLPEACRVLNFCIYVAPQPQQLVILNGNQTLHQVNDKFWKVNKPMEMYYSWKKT

As for “Twin-Strep-tagged and Myc-tagged Siesta protein (natural protein)”, the fold reduction of coimmunoprecipitation without RYBP against extract with RYBP was more than 6 fold.
